From the supplement of paper PMC9732359
± gives the uncertainty stated by the source.

Assay: protein stability index of a GFP-peptide fusion (yeast GPS) (PSI 1-4); higher = more stable; sorted into four equal gates, so the index is relative within each strain
Procedure, shortened: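 Yeast carrying a pooled library were grown to mid-log phase in leucine-free medium. Each library plasmid expresses Cherry and has a tiled 17-residue yeast protein peptide fused downstream of GFP. Cells were sorted into four equal gates by GFP/Cherry ratio, and plasmids from each gate were PCR-amplified, Illumina-sequenced and assigned to strains by barcode. Summing, across gates, the read frequency times the gate number gave each peptide's protein stability index.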

Sequence | protein stability index (doa10∆) | protein stability index (pdr5∆) | protein stability index (san1∆) | protein stability index (ubr1∆)
TLESLENLVVADLESFA [COR1] | 2.47 ± 0.066 | 2.67 ± 0.063 | 2.44 ± 0.065 | 2.3 ± 0.043
DPDKLKPNDLVGVNKDS [RPT5] | 3.18 ± 0.11 | 3.32 ± 0.13 | 3.34 ± 0.055 | 3.41 ± 0.098
NNPKIQTKDSVKEIVLP [IRR1] | 3.17 ± 0.07 | 2.94 ± 0.077 | 3 ± 0.059 | 3.11 ± 0.051
LGLLTPEVVELCQKSPV [FAS2] | 2.28 ± 0.071 | 2.73 ± 0.066 | 2.11 ± 0.12 | 2.93 ± 0.081
IIERYIKSKADAWVSAA [PRP8] | 1.86 ± 0.082 | 1.88 ± 0.072 | 2.39 ± 0.11 | 2.09 ± 0.12
IAKSQDKKSCSVDDVLS [DPB4] | 3.28 ± 0.057 | 3.15 ± 0.077 | 3.22 ± 0.055 | 3.16 ± 0.039
SGQTPVQSKARYTVRTF [RPL11A] | 2.29 ± 0.094 | 2.06 ± 0.081 | 1.72 ± 0.13 | 1.71 ± 0.089
ITLLTRQRELLIAHQRS [GRR1] | 2.18 ± 0.039 | 2.14 ± 0.038 | 2.01 ± 0.045 | 1.89 ± 0.029
GTANNNSNTTNQNSSTG [YJL041W/NSP1] | 3.19 ± 0.064 | 3.37 ± 0.075 | 3.25 ± 0.042 | 3.09 ± 0.061
SDVSDFEGWGHEYIRHL [RPN1] | 3.07 ± 0.15 | 3.09 ± 0.14 | 3.17 ± 0.14 | 3.37 ± 0.15
FESLPLKSAENSGKQQY [SWP82] | 3.17 ± 0.063 | 3.3 ± 0.057 | 3.01 ± 0.055 | 3.2 ± 0.056
LIIDEIHLLHDDRGPVL [BRR2] | 2.98 ± 0.1 | 2.98 ± 0.1 | 3.23 ± 0.046 | 2.88 ± 0.099
AKTFIDLESSSPELKAD [RPS7B] | 3.03 ± 0.086 | 3.4 ± 0.077 | 3.29 ± 0.085 | 3.17 ± 0.085
QFSYLSSTLGIDLEDIK [PCI8] | 2.36 ± 0.064 | 2.23 ± 0.076 | 1.71 ± 0.12 | 2.01 ± 0.07
VYKIYNHVMPLKPVDKL [SIN4] | 1.84 ± 0.064 | 1.97 ± 0.072 | 1.63 ± 0.11 | 1.62 ± 0.051
QDRHVIFLAERRILPKP [RPS7A] | 2.53 ± 0.23 | 2.93 ± 0.12 | 2.86 ± 0.27 | 2.73 ± 0.088
LESDVNIALVSKLRNNI [SRP54] | 2.31 ± 0.065 | 2.63 ± 0.056 | 2.74 ± 0.052 | 2.98 ± 0.067
FVFTNEPLTEIKNVIVS [RPP0] | 1.84 ± 0.057 | 2.68 ± 0.089 | 3.12 ± 0.076 | 2.73 ± 0.077
GGNSNKSPPQFFYNISS [SIN4] | 2.76 ± 0.043 | 3.04 ± 0.049 | 2.76 ± 0.037 | 2.58 ± 0.041
KMNNKPERFMVFQLPTR [RPC53] | 2.38 ± 0.063 | 2.75 ± 0.056 | 2.65 ± 0.085 | 2.83 ± 0.058
TTQRRYEKAQKDLENAQ [SMC1] | 3.05 ± 0.098 | 3.31 ± 0.069 | 3.2 ± 0.052 | 3.14 ± 0.1
SFSLTTFSPSGKLGQID [PRE8] | 3 ± 0.14 | 2.67 ± 0.1 | 3.01 ± 0.074 | 3.08 ± 0.073
VICSVTGPIEPKARQEL [RRP46] | 2.79 ± 0.081 | 3.06 ± 0.11 | 2.75 ± 0.051 | 2.88 ± 0.054
QIPQQLYQSLTPQQLQM [SNF5] | 2.73 ± 0.041 | 2.7 ± 0.038 | 2.57 ± 0.045 | 2.77 ± 0.034
IVDDKQEMIDILETIFR [DIB1] | 2.98 ± 0.1 | 3.17 ± 0.13 | 3.02 ± 0.22 | 2.75 ± 0.18
AWRTLVGVSHTNEEVRN [CYT1] |  | 2.98 ± 0.13 | 1.92 ± 0.15 | 2.18 ± 0.094

Sequence | protein stability index (doa10∆) | protein stability index (pdr5∆) | protein stability index (san1∆) | protein stability index (ubr1∆)
FSISYKPPTQKTDTKVS [SRP21] | 2.24 ± 0.037 | 2.15 ± 0.042 | 1.98 ± 0.059 | 2.11 ± 0.033
ERNAAYQKEYETAERNI [RPL7A] | 2.71 ± 0.12 | 2.61 ± 0.1 | 2.48 ± 0.095 | 2.62 ± 0.18
MLGIRSSVKTCFKPMSL [RIP1] | 2.9 ± 0.074 | 3.05 ± 0.079 | 2.83 ± 0.057 | 2.9 ± 0.052
CGAGVFLANHKDRLYCG [RPS31] | 2.19 ± 0.097 | 1.46 ± 0.16 | 1.06 ± 0.21 | 2.5 ± 0.2
SEDHSFRKIKLRVDEVQ [RPS1A] | 3.1 ± 0.12 | 3.16 ± 0.11 | 3.1 ± 0.071 | 3.22 ± 0.071
DDVRRAAVIALGFVLLR [RPN2] | 1.86 ± 0.14 | 2.09 ± 0.075 | 1.99 ± 0.13 | 1.8 ± 0.082
SRFTNVSVIAPESQGQH [YMR153W/NUP53] | 3 ± 0.09 | 3.39 ± 0.087 | 2.6 ± 0.12 | 3.19 ± 0.048
YMRLWEINETEFIRCGC [RMP1] | 3.31 ± 0.13 | 3.46 ± 0.14 | 3.55 ± 0.13 | 3.33 ± 0.049
RPKKITGWITQSTPVLL [RPN1] | 2.21 ± 0.048 | 2.11 ± 0.043 | 2.3 ± 0.057 | 2.18 ± 0.035
DDRDHFGKKRLDLAGPL [RPB2] |  | 2.85 ± 0.16 | 3.2 ± 0.21 | 3.31 ± 0.16
NVDGNIKIVYALTTIKG [RPS18A] |  | 1.49 ± 0.18 |  | 1.23 ± 0.11
KFSDLKFILQILQILNL [YML103C/NUP188] | 3.05 ± 0.15 | 2.12 ± 0.29 | 3.48 ± 0.13 | 
KAEFSKEMTLQKNMNDL [YIL149C/MLP2] | 3.21 ± 0.053 | 3.3 ± 0.086 | 3.23 ± 0.09 | 3.07 ± 0.067
VSFDFNGVPGQALDAVR [MED8] | 3.1 ± 0.077 | 3.36 ± 0.079 | 3.32 ± 0.079 | 3.36 ± 0.061
MSNIVGIEYNRVTNTTS [RPC40] | 3.36 ± 0.22 | 3.33 ± 0.13 | 2.73 ± 0.08 | 2.88 ± 0.096
AMHNSKAASSTRIFQAL [POP1] | 2.59 ± 0.093 | 2.54 ± 0.078 | 2.87 ± 0.14 | 2.89 ± 0.11
LLIRKLPFQRLVREIAQ [HHT1] | 1.29 ± 0.085 | 1.48 ± 0.094 | 1.44 ± 0.16 | 1.73 ± 0.097
HKTMSIVGVLQDDADPM [RPT2] | 1.6 ± 0.18 | 1.3 ± 0.2 | 1.58 ± 0.21 | 1.85 ± 0.13
AAGYGKILGKGRIPNVP [RPL28] | 3.46 ± 0.087 | 3.2 ± 0.075 | 3.46 ± 0.066 | 3.48 ± 0.05
ILPQQSKLKLKNLLRKN [ECM29] | 2.39 ± 0.089 | 1.79 ± 0.051 | 2.01 ± 0.07 | 2.25 ± 0.074
NKGAKAEDVALNEQVKK [NAS6] | 2.98 ± 0.2 | 2.96 ± 0.19 | 2.77 ± 0.15 | 3.1 ± 0.075
KHGAKKVAKRTKIKPFI [RPL27A] | 2.91 ± 0.081 | 2.97 ± 0.082 | 2.95 ± 0.059 | 3.24 ± 0.035
VIDIEIHVLEQDGGIMG [SKI6] | 2.84 ± 0.076 | 2.56 ± 0.095 | 2.5 ± 0.11 | 2.85 ± 0.062
SKKGSLENNIREFPEYF [RPL10] | 2.95 ± 0.12 | 3.23 ± 0.084 | 3.29 ± 0.057 | 3.36 ± 0.069
GPVAAQFTKVIDEPIKS [FAS1] | 1.8 ± 0.2 | 2.41 ± 0.092 | 2.15 ± 0.14 | 2 ± 0.052
